The target of assay [1] is T1, huCD39 recombinant protein (human, UniProt P49961 38-478).
T1 construct: the entry is the extracellular domain and ends in a histidine tag; also called soluble huCD39 protein; human CD39 extracellular domain recombinant protein
T1 sequence: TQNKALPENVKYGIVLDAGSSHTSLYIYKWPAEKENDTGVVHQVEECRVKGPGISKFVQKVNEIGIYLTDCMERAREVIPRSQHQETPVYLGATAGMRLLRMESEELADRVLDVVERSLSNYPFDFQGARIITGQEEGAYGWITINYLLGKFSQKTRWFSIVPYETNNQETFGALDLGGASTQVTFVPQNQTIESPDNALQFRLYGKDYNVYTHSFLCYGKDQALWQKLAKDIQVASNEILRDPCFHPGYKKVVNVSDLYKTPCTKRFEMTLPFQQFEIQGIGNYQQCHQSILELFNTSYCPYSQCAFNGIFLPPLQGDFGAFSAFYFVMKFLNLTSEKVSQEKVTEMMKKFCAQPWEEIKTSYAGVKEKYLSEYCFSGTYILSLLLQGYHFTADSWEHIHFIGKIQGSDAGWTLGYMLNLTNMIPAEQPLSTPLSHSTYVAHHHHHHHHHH
Kind of assay: indirect ELISA, huCD39 recombinant protein coated at 1 ug/mL. The procedure: The next day, washed 5 times with PBS buffer and blocked with 200 μL/well of 2% skim milk powder for 1 h. A certain dose range of CD39 humanized antibody was added, and incubated for 1 h at room temperature. Then, washed 5 times with PBST washing buffer (PBS, 0.05% Tween 20), 100 μL HRP-labeled secondary antibody was added to each well, and incubated for 30 min at room temperature. The plates were washed 5 times again, and TMB (Life Technologies) was added for color development for 5 to 10 min. Finally, 1N HCl was added to terminate the reaction, and the OD value was measured at 450 nm. GraphPad Prism software was used to generate data plots and count the affinity data (FIG. 4). The EC₅₀ values of the binding activity of the three humanized antibodies were all at the level of 10⁻¹⁰ M.
In general terms: ELISA stands for enzyme-linked immunosorbent assay.

Assay [2] addresses T2, huCD39 on the cell surface (293T/17-huCD39 cells) (human, UniProt P49961 1-510).
T2 sequence (looked up): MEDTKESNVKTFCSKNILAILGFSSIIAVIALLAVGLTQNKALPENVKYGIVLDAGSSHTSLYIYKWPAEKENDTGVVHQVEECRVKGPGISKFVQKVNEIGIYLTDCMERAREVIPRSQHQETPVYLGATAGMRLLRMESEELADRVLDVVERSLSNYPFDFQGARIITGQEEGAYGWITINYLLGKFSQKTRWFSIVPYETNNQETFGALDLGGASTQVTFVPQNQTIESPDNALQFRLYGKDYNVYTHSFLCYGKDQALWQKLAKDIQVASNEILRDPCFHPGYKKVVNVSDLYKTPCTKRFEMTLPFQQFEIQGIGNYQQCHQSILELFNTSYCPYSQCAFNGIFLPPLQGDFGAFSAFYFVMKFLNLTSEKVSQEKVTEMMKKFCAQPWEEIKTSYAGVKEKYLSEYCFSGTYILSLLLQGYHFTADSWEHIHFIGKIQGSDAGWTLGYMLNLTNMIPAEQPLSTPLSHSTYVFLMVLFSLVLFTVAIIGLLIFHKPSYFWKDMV
Kind of assay: cell-based or functional assay.

Assay [3] addresses T2, huCD39 on the cell surface …. In words: cell-based or functional assay. This is another data set of the same source.
The target is the same in assay [4]. In words: flow cytometry on 293T/17-huCD39 cells. The procedure:
Flow cytometry assay: recombinant host cell line 293T/17-huCD39 cells expressing huCD39 were used to evaluate the binding ability of the humanized antibody to the natural CD39 protein on the cell surface. The recombinant cells were resuspended in PBS buffer, 2×10⁶ cells were added to a 96-well U-plate, and a certain gradient dilution range of the humanized antibody was incubated for 1h at 4° C. in a refrigerator or on ice. The mixture was centrifuged at 1500 rpm for 3 min at 4° C., and washed three times with PBS buffer. Then, incubated for 30 min at 4° C. in the refrigerator or on ice with diluted Alexa Fluor 488-labeled goat anti-human polyclonal antibody (pAb): Goat anti-Human IgG (H+L) Cross-Adsorbed Secondary Antibody, Alexa Fluor 488 (thermo), and finally the cells were washed three times with PBS as described above and analyzed in MACSQuant flow cytometry. Data plots were generated and affinity data were counted using GraphPad Prism software (FIG. 5). The results are shown in Table 5, and the EC₅₀ values of 293T/17-huCD39 humanized antibody were all at the level of 10⁻⁹M.

The target in assay [5] is T3, cyno CD39 on the cell surface (293T/17-cyno CD39 cells) (cyno, UniProt P49961 7-510 (human entry)).
T3 construct: 293T/17 cells stably transfected with the cyno CD39 gene
T3 chain: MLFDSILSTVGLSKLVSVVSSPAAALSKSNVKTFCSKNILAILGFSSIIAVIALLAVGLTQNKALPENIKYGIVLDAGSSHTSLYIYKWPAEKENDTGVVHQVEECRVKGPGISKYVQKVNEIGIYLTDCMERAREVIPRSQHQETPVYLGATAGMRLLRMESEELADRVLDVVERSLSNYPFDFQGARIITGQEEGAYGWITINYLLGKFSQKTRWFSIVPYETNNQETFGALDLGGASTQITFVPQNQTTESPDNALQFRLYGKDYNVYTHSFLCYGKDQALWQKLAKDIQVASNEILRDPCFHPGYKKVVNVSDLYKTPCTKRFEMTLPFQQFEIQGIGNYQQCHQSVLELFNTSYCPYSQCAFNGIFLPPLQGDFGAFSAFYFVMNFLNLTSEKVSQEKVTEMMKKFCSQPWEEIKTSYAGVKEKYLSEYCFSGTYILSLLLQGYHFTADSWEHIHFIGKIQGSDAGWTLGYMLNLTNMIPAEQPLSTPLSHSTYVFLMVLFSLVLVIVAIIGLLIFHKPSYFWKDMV
Kind of assay: flow cytometry on 293T/17-cyno CD39 cells. The procedure: (§1) Flow cytometry assay: recombinant host cell line 293T/17-huCD39 cells expressing huCD39 and recombinant host cell line 293T/17-cyno CD39 cells expressing cyno CD39 were used to evaluate the binding ability of the chimeric antibody to the natural CD39 protein on the cell surface. The recombinant cells were resuspended in PBS buffer, and 2×10⁶ cells were added to a 96-well U-plate. The chimeric antibody in a certain gradient dilution range incubated for 1h at 4° C. in a refrigerator or on ice, centrifuged at 1500 rpm for 3 min at 4° C., washed three times with PBS buffer, and then incubated for 30 min at 4° C. in the refrigerator or on ice with diluted Alexa Fluor 488-labeled goat anti-human polyclonal antibody (pAb): Goat anti-Human IgG (H+L) Cross-Adsorbed Secondary Antibody, Alexa Fluor 488 (thermo). Finally the cells were washed three times with PBS as described above and analyzed in MACSQuant flow cytometry. GraphPad Prism software was used to generate data plots and count affinity data (FIG. 2). The results are shown in Table 2, and the EC₅₀ values of each chimeric antibody of 293T/17-huCD39 and 293T/17-cyno CD39 was at the level of 10⁻⁹M.
On the technique in general: In flow cytometry, cells or beads pass a laser one at a time.

Assay [6] has as its target T2, huCD39 on the cell surface …. In words: cell-based or functional assay. This is another data set of the same source.
Assay [7] addresses T3, cyno CD39 on the cell surface …. In words: cell-based or functional assay.
Assay [8] has as its target T2, huCD39 on the cell surface …. Kind of assay: flow cytometry on 293T/17-huCD39 cells. The method, then:
as §1
This is another data set of the same source.

In assay [9] the target is T1, huCD39 recombinant protein. Kind of assay: indirect ELISA, huCD39 recombinant protein coated at 1 ug/mL. The method, then: The Fv region of the four mouse-derived antibodies obtained in Example 1 was fused with the human IgG2 Fc region and constructed into the pcDNA3.1 vector. Then transfected 293F cells to express the antibody proteins, and the antibodies were purified by ProteinA affinity chromatography. […] The next day, the plates were washed 5 times with PBS buffer and blocked with 200 μL/well of 2% skimmed milk powder for 1 h. A certain dose range of chimeric CD39 antibody was incubated for 1 h at room temperature; then washed 5 times with PBST washing buffer (PBS, 0.05% Tween 20). 100 μL of HRP-labeled secondary antibody was added to each well and the plates were incubated for 30 min at room temperature. The plates were washed 5 times again and TMB (Life Technologies) was added for color development for 5 to 10 min. At last, 1N HCl was added to terminate the reaction, and the OD value was measured at 450 nm. GraphPad Prism software was used to generate data plots and the affinity data was counted (FIG. 1).
This is another data set of the same source.

The results in this text go back to patent US20220411498A1 (JACOBIO PHARMACEUTICALS, published 2022).

The EC50 is the concentration giving half of the maximal effect.

Changes are numbered by the printed parent chain. Where two headings read alike, the source gives them in different places.

B1: h201H3.1+h201L1.1dmut G2C (antibody, human IgG2, kappa, V domains shown)
VH: QVQLVESGGGVVQPGRSLRLSCAASGFTFSDYGMHWVRQAPGKGLEWVAYISSGSSIMYYADTVKGRFTISRDNSKNTLYLQMNSLRAEDTAVYYCARDLYYDHVLDYWGQGTTVTVSS
VL: DIQMTQSPSSLSASVGDRVTITCRASQEIRGYLIWLQQKPGKAIKRLIYAASTLESGVPSRFSGSRSGSDYTLTISSLQPEDFATYYCLQYTSYPRTFGQGTKVEIKR
notes: Humanized antibody, expressed in 293F cells
Turning to B1, in [1], the Bottom was found to be 0.109 OD450, the EC50 worked out at 0.433 nM and the Top is 1.03 OD450. For the same molecule, in assay [2], the “EC50 of reversal of ATP-mediated proliferation inhibition of human CD4+ T cells (CFSE, flow cytometry)” value was determined as 5.08 nM and the “EC50 of reversal of ATP-mediated proliferation inhibition of human CD8+ T cells (CFSE, flow cytometry)” value came to 7.08 nM. In addition, in [3], the “Blocking of ATPase activity on cell surface (293T/17-huCD39, CellTiter Glo): Bottom” value stood at 39600; the “Blocking of ATPase activity on cell surface (293T/17-huCD39, CellTiter Glo): EC50” value (from here on “Blocking … (293T/17-huCD39, CellTiter Glo): EC50”) stood at 0.038 nM; the “Blocking of ATPase activity on cell surface (293T/17-huCD39, CellTiter Glo): Top” value (“Blocking … (293T/17-huCD39, CellTiter Glo): Top” for short) was determined as 245000. In assay [4], the Bottom was -1.33; the midpoint of the response, the EC50, lay at 3.31 nM; the Top turned out to be 280.

B2: M201 HuH1L1(D-E) G2C (antibody, human IgG2, kappa, V domains shown)
VH: B1 VH with Q1E, V11L, R16G, A49S, S75A, T78S, T114L, V115L
VL: B1 VL with K42G, S69T, Y71F, Q100G
notes: as for B1
Take B2: in assay [1], the Bottom was 0.068 OD450, the EC50 came out at 0.514 nM and the Top was 1.18 OD450. Also, in assay [2], the “EC50 of reversal of ATP-mediated proliferation inhibition of human CD4+ T cells (CFSE, flow cytometry)” value worked out at 25.5 nM and the “EC50 of reversal of ATP-mediated proliferation inhibition of human CD8+ T cells (CFSE, flow cytometry)” value came out at 60.4 nM. Further, in [3], the “Blocking of ATPase activity on cell surface (293T/17-huCD39, CellTiter Glo): Bottom” value came out at 31300; the “Blocking … (293T/17-huCD39, CellTiter Glo): EC50” value was determined as 0.026 nM; the “Blocking … (293T/17-huCD39, CellTiter Glo): Top” value is 152000. In [4], this molecule came in with a Bottom of -2.15, a concentration for a half-maximal effect (EC50) of 2.94 nM and a Top of 329.

B3: h201H3.1+h219L1.1 G2C (antibody, human IgG2, kappa, V domains shown)
VH: B1 VH
VL: B1 VL with I29V, R30S, I34N, T92A
notes: as for B1
As to B3, in assay [1], the Bottom was 0.085 OD450, the EC50 came to 0.709 nM and the Top turned out to be 0.991 OD450. Besides, in assay [2], the “EC50 of reversal of ATP-mediated proliferation inhibition of human CD4+ T cells (CFSE, flow cytometry)” value amounted to 0.646 nM and the “EC50 of reversal of ATP-mediated proliferation inhibition of human CD8+ T cells (CFSE, flow cytometry)” value was 1.35 nM. For the same molecule, in [3], the “Blocking of ATPase activity on cell surface (293T/17-huCD39, CellTiter Glo): Bottom” value amounted to 38800; the “Blocking … (293T/17-huCD39, CellTiter Glo): EC50” value came to 0.077 nM; the “Blocking … (293T/17-huCD39, CellTiter Glo): Top” value amounted to 250000. In assay [4], this molecule came in with a Bottom of 8.18, a concentration giving a half-maximal response (EC50) of 3.1 nM and a Top of 266.

B4: 219 hIgG2 (antibody, V domains shown)
VH: EVQLVESGGGLVKPGGSLKLSCAASGFTFSDYGMHWVRQAPEKGLEWVAYISSGSSIRYYADTVKGRFTISRDNAKNTLFLQMTSLRSEDTAIYYCARDLYYDHVLDYWGQGTTLTVSS
VL: DIQMTQSPSSLSASLGERVSLTCRASQEVSGYLNWLQQKPDGTIKRLIYAASTLDSGVPKRFSGSRSGSDYSLTISSLESEDFADYYCLQYASYPRTFGGGTKVEIKR
notes: Chimeric antibody: mouse Fv fused to the human IgG2 constant region; also called chimeric antibody 219
In assay [5], B4 showed a Bottom of 3.33, an EC50 of 8.16 nM and a Top of 214. Besides, in assay [6], the “Blocking of ATPase activity on cell surface (293T/17-huCD39, CellTiter Glo): Bottom” value was 172000; the “Blocking … (293T/17-huCD39, CellTiter Glo): EC50” value came to 0.01 nM; the “Blocking … (293T/17-huCD39, CellTiter Glo): Top” value was found to be 800000. Besides, in assay [7], the “Blocking of ATPase activity on cell surface (293T/17-cyno CD39, CellTiter Glo): Bottom” value came to 44500; the “Blocking of ATPase activity on cell surface (293T/17-cyno CD39, CellTiter Glo): EC50” value came out at 0.024 nM; the “Blocking of ATPase activity on cell surface (293T/17-cyno CD39, CellTiter Glo): Top” value is 303000. In [8], this molecule had a Bottom of 3.81, an EC50 of 4.51 nM and a Top of 156. Moreover, in [9], the Bottom turned out to be 0.052 OD450, the EC50 was found to be 1.69 nM and the Top was 1.33 OD450.
